According to PMC7959530:

Target: asialofetuin (UniProt P12763)
Experiment: ELISA

Chain of UniProt P12763 (P12763 19-359): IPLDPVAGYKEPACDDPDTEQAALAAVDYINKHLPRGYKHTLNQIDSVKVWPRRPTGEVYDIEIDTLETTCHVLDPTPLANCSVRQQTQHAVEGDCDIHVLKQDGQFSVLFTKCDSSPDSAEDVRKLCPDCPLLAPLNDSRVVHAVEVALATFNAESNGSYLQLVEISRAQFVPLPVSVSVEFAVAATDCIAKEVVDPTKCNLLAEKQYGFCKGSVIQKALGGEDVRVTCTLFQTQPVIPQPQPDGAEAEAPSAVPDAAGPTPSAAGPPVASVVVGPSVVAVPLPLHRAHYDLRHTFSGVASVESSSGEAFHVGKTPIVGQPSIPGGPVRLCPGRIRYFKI

EC50: 0.14 µM
Substance: PX-Gal3_(Δ116) (fusion protein of APEX2 and galectin-3 lacking the N-terminal domain) (domain or fragment)
